Assay results: publication PMC3494873 (EMBO Molecular Medicine, 2012)
Read-outs that look alike come from different tables or passages of the source.

B1: Recombinant Fc-his-tag-E-cadherin (extracellular portion) (Fc fusion, UniProt P12830 155-709, looked up)
chain: DWVIPPISCPENEKGPFPKNLVQIKSNKDKEGKVFYSITGQGADTPPVGVFIIERETGWLKVTEPLDRERIATYTLFSHAVSSNGNAVEDPMEILITVTDQNDNKPEFTQEVFKGSVMEGALPGTSVMEVTATDADDDVNTYNAAIAYTILSQDPELPDKNMFTINRNTGVISVVTTGLDRESFPTYTLVVQAADLQGEGLSTTATAVITVTDTNDNPPIFNPTTYKGQVPENEANVVITTLKVTDADAPNTPAWEAVYTILNDDGGQFVVTTNPVNNDGILKTAKGLDFEAKQQYILHVAVTNVVPFEVSLTTSTATVTVDVLDVNEAPIFVPPEKRVEVSEDFGVGQEITSYTAQEPDTFMEQKITYRIWRDTANWLEINPDTGAISTRAELDREDFEHVKNSTYTALIIATDNGSPVATGTGTLLLILSDVNDNAPIPEPRTIFFCERNPKPQVINIIDADLPPNTSPFTAELTHGASANWTIQYNDPTQESIILKPKMALEVGDYKINLKLMDNQNKDQVTTLEVSVCDCEGAAGVCRKAQPVEAGLQIPA
B2: Recombinant angiopoietin-like 6 (ligand, UniProt Q8NI99 21-470, looked up)
chain: RAGAPRCTYTFVLPPQKFTGAVCWSGPASTRATPEAANASELAALRMRVGRHEELLRELQRLAAADGAVAGEVRALRKESRGLSARLGQLRAQLQHEAGPGAGPGADLGAEPAAALALLGERVLNASAEAQRAAARFHQLDVKFRELAQLVTQQSSLIARLERLCPGGAGGQQQVLPPPPLVPVVPVRLVGSTSDTSRMLDPAPEPQRDQTQRQQEPMASPMPAGHPAVPTKPVGPWQDCAEARQAGHEQSGVYELRVGRHVVSVWCEQQLEGGGWTVIQRRQDGSVNFFTTWQHYKAGFGRPDGEYWLGLEPVYQLTSRGDHELLVLLEDWGGRGARAHYDGFSLEPESDHYRLRLGQYHGDAGDSLSWHNDKPFSTVDRDRDSYSGNCALYQRGGWWYHACAHSNLNGVWHHGGHYRSRYQDGVYWAEFRGGAYSLRKAAMLIRPLKL

Key:
Assay in all cases: SPR
[1] = target: T1, Recombinant his-tag-α6β4 integrin (extracellular portions) (UniProt P23229-2 24-1011; P16144 28-710)
[2] = target: T1, Recombinant his-tag-α6β4 integrin …; remark: listed apart in the source
[3] = target: B1

Binder	Kd [1] [nM]	Kd [2] [nM]	Kd [3] [nM]
B1	5.3 to 16.8	–	–
B2	–	2.03	29
